Assay results taken from patent US20260028391A1 (HUMABS BIOMED, published 2026).

What was measured:
[1] = target: fusion glycoprotein of the RSV used in the neutralization assay of Example 1 (respiratory syncytial virus (strain not …)); experiment: cell-based or functional assay
[2] = target: fusion glycoprotein of the MPV D280 used in the neutralization assay of Example 3 (metapneumovirus (strain )); experiment: cell-based or functional assay
[3] = target: fusion glycoprotein (F) of RSV A GFP (Tables 41 and 42) (respiratory syncytial virus A); experiment: cell-based or functional assay
[4] = target: fusion glycoprotein (F) of RSV B GFP (Tables 41 and 42) (respiratory syncytial virus B); experiment: cell-based or functional assay
[5] = target: fusion glycoprotein (F) of MPV A GFP (Tables 41 and 43) (metapneumovirus A); experiment: cell-based or functional assay
RSV F B N201S = target: T1, RSV F B N201S (RSV B); experiment: FACS, % binding to RSV F B variants
T1 construct: whole, on cells

RSV F B K68N-N208S = target: T2, RSV F B K68N-N208S (RSV B); experiment: FACS, % binding to RSV F B variants
T2 construct: whole, on cells

RSV F B, B Ref = target: T3, RSV F B, B Ref (RSV B); experiment: FACS, % binding to RSV F B variants
T3 construct: whole, on cells

RSV F B K68N-N201S = target: T4, RSV F B K68N-N201S (RSV B); experiment: FACS, % binding to RSV F B variants
T4 construct: whole, on cells

RSV F B N208S = target: T5, RSV F B N208S (RSV B); experiment: FACS, % binding to RSV F B variants
T5 construct: whole, on cells; also called mutant N208S

RSV F B N208D = target: T6, RSV F B N208D (RSV B); experiment: FACS, % binding to RSV F B variants
T6 construct: whole, on cells

RSV F B S443P = target: T7, RSV F B S443P (RSV B); experiment: FACS, % binding to RSV F B variants
T7 construct: whole, on cells; also called mutant S443P

[6] = target: RSV A fusion glycoprotein (F), virus of the neutralisation assays of Tables 54 and 57 (RSV A); experiment: cell-based or functional assay
RSV-A F = target: T8, RSV-A F (RSV A); experiment: BLI
T8 construct: also called RSV F A

RSV-B F = target: T9, RSV-B F (RSV B); experiment: BLI
T9 construct: also called RSV F B

B1: MPK169-v2 (antibody, V domains shown)
VH: EVQLVQSGAEVKKPGESLTISCQTSGYSFINYWIGWVRQMPGKGLEWMGVIYPFDSDTEYSPSFRGHVTISADKSINTAYLQWNSLGASDTAMYYCARFTFGIALVSGDVNGEGHAFDVWGRGTLVTVSS
VL: EIVLTQSPPTLSVSPGQRATLSCRASQSVADKLAWYQQRPGQAPRLLIYGASSRATGVPARFSGSGSETEFTLTITSLQSEDFALYYCHQYNNWPHAFGQGTRLVIK
- RSV Neutralization - IC50 [1]: 1.4 ng/mL

B2: MPK204 (antibody, V domains shown)
VH: QVQLVESGGGLVKPGGSLRLSCEASGLSLSGYYMIWIRQAPGKGLEWISSISSSSNYIDYADSVKGRFTISRHNGQNTLYLQMNSLRVEDTAVYYCATEQTPSPGPFDLWGQGTLVTVSS
VL: QSVLTQPPSVSGAPGQRVTISCTGTSSNIGTGYDVHWYQQFPGTSPKLLIYRNTNRPSGVPDRFSGSKSGSSASLAIAGLQAEDEADYYCQSYDRSVSGWVFGGGTKLTVL
- MPV D280 Neutralization - IC50 [2]: 6 ng/mL
- RSV Neutralization - IC50 [1]: 12.1 ng/mL

B3: MPK77-rIgG1-LS (antibody, V domains shown)
VH: EVQLVESGGGLVKPGGSLRLSCAASKSFSGYYMIWIRQAPGRGLEWIADISGSSTYTDYADSVKGRFTISRDNTRNTLYLQMNSLRPEDTAVYYCATEQVPSPGPFDLWGPGTLVTVSS
VL: QSVLTQPPSVSGAPGQRVIISCTGSSSNIGAGYDVHWYQQFPGTSPKLLIYRNTNRPSGVPDRFSGFKSGASAALAITGLQAEDEADYYCQSYDRSLSGWAFGGGTKVTVL
- IC50 (ng/ml), RSV A GFP neutralization [3]: 6.77 ng/mL
- IC50 (ng/ml), RSV B GFP neutralization [4]: 7.32 ng/mL
- IC50 (ng/ml), MPV A GFP neutralization [5]: 12.9 ng/mL

B4: MPK133 (antibody, V domains shown)
VH: QVQLVQSGGGLVKPGGSLRLSCAASEFSFSGYFMIWIRQAPGKGLEWISYISGSSTYTNYADSVKGRFTISRDNAQNTLYLEMNSLRAEDTGVYYCATEQVPSPGPFDLWGQGTLVTVSS
VL: QSVLTQPPSVSGAPGQRVTISCTGSSSNIGAGYDVHWYQQFPGRSPTLLIYRNTNRPSGVPDRFSGSQSGSSASLAITGLQAEDEADYYCQSYDRTLSGWAFGGGTKVTVL
- MPV D280 Neutralization - IC50 [2]: 3.5 ng/mL
- RSV Neutralization - IC50 [1]: 21.1 ng/mL

B5: MPK146 (antibody, V domains shown)
VH: QVQLVESGGGLVKPGGSLRLSCAASGFTFSGYYMIWIRQAPGKGLEWIASISGSSNYIDYADSVRGRFTISRDNARNILDLQMNSLRAGDTALYYCATEQVPSPGPFDLWGQGTLVTVSS
VL: QSVLTQPPSVSGAPGQRVTISCTGSNSNLGAGYDVHWYQQFPGTSPKLLIYRNTNRPSGVPDRFAGSKSGTSASLAITGLQAEDEADYYCQSYDRSLSGWVFGGGTKLTVL
- MPV D280 Neutralization - IC50 [2]: 5.4 ng/mL
- RSV Neutralization - IC50 [1]: 16.6 ng/mL

B6: MPK130 (antibody, V domains shown)
VH: EVQLVESGGGLVKPGGSLTLSCEASGFSISGYYMIWVRQAPGKGLEWVSSISASDTYIDYAVSVQGRFTISRHNTKNSLYLQMSSLRVEDTGVYYCTREKVPSPGPFDCWGQGTLVTVSS
VL: QSVLTQPPSVSGAPGQRITISCTGTSSNIGAGYDVHWYQHLPGAAPRLLIYVNTNRPSGVPDRFSGARSGTSASLAITGLQAEDEADYYCQSYDRSLGGWAFGEGTKVTVL
- MPV D280 Neutralization - IC50 [2]: 4.3 ng/mL
- RSV Neutralization - IC50 [1]: 20.6 ng/mL

B7: MPK65-v2-v3.1 (antibody, V domains shown)
VH: QVPLVQSGAEVKKPGESLKISCKGSGYSFISYWIGWVRQMPGKGLEWMGVIYPFDADTKYSPSFQGHVTISADKSSNTAYVQWSSLKASDTAMYYCARFTFGIAVVTDDVSGEGQAFEIWGQGTMVTVSS
VL: EIVMMQSPATLSVSPGERATLSCRASQSVAGNLAWYQQRPGQAPRLLIYGASTRATGVPARFSGSGSETEFTLTISSLQSEDFAVYYCHQYSNWPQAFGQGTRLDIK
- % binding (RSV F B N201S): 31.3%
- % binding (RSV F B K68N-N208S): 0.052%
- % binding (RSV F B, B Ref): 60.1%
- % binding (RSV F B K68N-N201S): 22.6%
- % binding (RSV F B N208S): 0.029%
- % binding (RSV F B N208D): 0.14%
- % binding (RSV F B S443P): 30.6%
- IC50, neutralization of RSVA [6]: 5.4 ng/mL
- Kd (RSV-A F): 0.192 nM
- Kd (RSV-B F): 0.639 nM

B8: MPK104-rIgG1-LS (antibody, V domains shown)
VH: EVQLVESGGGLVKPGGSLRLSCAASGFTIDGYGMNWVRQAPGKGLEWVSSISASSNYIYYADSMKGRFTISRDNGKNSLYLQMHSLRVEDTGVYYCARAPLEPPYFDLWGRGTLVTVSS
VL: QSVLTQPPSVSGAPGQRVTISCSGGSSNIGAGYDVHWYQQVPGKGPKVLIYGNNNRPSGVPDRFSGSNFGASASLAITGLQADDEADYFCQSYDRRLGGPVFGGGTKLTVL
- IC50 (ng/ml), RSV A GFP neutralization [3]: 7.44 ng/mL
- IC50 (ng/ml), RSV B GFP neutralization [4]: 5.23 ng/mL
- IC50 (ng/ml), MPV A GFP neutralization [5]: 6.79 ng/mL
